Measured values taken from patent US20250304667A1 (ALLERGAN, published 2025).
Like-named read-outs stand apart in the source and are kept apart here.

Tests used:
Assay in all cases: cell-based or functional assay
[1] = target: T1, human complement Component 5 (C5) (human, UniProt P01031 19-1676, limits assumed)
[2] = target: T1, human complement Component 5 (C5); remark: listed apart in the source
[3] = target: T1, human complement Component 5 (C5); remark: listed apart in the source
[4] = target: T1, human complement Component 5 (C5); remark: listed apart in the source
[5] = target: T1, human complement Component 5 (C5); remark: listed apart in the source

T1 sequence (P01031 19-1676 limits assumed): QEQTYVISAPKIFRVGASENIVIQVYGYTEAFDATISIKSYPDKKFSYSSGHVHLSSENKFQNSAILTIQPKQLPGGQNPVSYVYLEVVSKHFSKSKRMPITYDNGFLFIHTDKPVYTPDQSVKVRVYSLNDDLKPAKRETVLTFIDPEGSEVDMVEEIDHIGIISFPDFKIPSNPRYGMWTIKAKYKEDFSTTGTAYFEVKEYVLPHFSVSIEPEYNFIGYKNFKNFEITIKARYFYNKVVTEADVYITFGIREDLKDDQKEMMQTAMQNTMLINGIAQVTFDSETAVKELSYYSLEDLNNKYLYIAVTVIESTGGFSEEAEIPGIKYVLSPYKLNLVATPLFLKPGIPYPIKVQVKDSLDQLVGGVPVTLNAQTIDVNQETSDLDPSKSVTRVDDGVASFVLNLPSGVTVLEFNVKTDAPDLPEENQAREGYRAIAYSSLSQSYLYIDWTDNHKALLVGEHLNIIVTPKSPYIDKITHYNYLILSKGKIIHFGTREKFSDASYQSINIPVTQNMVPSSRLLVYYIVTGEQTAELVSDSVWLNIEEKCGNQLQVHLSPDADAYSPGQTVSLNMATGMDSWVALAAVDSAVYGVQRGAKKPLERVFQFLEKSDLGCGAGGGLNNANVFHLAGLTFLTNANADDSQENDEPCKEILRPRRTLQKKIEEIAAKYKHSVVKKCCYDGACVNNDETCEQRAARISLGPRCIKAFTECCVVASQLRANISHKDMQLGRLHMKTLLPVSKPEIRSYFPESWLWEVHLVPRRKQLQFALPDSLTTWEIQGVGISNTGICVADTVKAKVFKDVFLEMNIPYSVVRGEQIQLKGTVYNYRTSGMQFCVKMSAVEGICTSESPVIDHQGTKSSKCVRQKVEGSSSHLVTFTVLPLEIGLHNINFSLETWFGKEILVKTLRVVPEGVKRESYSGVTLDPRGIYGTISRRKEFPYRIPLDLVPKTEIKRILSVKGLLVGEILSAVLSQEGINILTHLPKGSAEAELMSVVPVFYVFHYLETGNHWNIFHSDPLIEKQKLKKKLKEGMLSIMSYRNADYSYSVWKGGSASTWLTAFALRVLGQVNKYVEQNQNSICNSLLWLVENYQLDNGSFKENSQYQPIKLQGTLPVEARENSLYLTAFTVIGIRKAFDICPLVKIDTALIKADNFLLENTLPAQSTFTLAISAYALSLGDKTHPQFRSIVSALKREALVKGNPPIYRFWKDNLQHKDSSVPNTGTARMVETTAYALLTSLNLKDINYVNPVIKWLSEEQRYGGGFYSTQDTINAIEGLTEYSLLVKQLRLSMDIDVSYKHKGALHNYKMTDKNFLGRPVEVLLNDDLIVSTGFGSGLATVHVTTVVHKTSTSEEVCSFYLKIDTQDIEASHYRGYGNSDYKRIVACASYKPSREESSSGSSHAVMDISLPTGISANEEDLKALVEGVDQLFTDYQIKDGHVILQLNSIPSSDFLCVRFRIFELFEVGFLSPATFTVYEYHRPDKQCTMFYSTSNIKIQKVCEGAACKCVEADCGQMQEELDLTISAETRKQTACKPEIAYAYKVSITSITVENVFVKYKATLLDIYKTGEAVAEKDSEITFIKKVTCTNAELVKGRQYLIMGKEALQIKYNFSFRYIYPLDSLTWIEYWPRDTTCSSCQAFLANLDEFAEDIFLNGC

Row | Binder | IC50 (read off the curve), % Inhibition [1] [µg/mL] | IC50 (read off the curve), % Inhibition [2] [µg/mL] | IC50 (read off the curve), OD (450nM) [3] [µg/mL] | further results
1 | H2L1-IgG (antibody, V domains shown) VH: EVQLVQSGAEVKKPGASVKVSCKASGYTFTDEYMNWVRQAPGKSLEWVGYINPNNGGADYNQKFQGRVTITVDQSASTAYMELSSLRSEDTAVYFCARLGYSNPYFDFWGQGTLVTVSS VL: DIVLTQSPDSLAVSLGERATINCKASQDVNTAVAWYQQKPDQSPKLLIYWASTRHTGVPARFTGSGSGTDYTLTISSLQAEDVAVYFCQQHHVSPWTFGGGTKVEIK | ~3 | – | – | –
2 | H1L2-Fab (Fab, V domains shown) VH: QVQLVQSGAEVKKPGASVKVSCKASGYTFTDEYMNWVRQAPGQSLEWMGYINPNNGGADYNQKFQGRVTMTVDQSISTAYMELSRLRSDDTAVYFCARLGYSNPYFDFWGQGTLVTVSS VL: DIVLTQSPATLSLSPGERATLSCRASQDVNTAVAWYQQKPDQSPKLLIYWASTRHTGVPARFTGSGSGTDYTLTISSLQPEDFAVYFCQQHHVSPWTFGGGTKVEIK | – | ~2 | ~0.4 | –
3 | H3L1-IgG (antibody, V domains shown) VH: QVQLVQSGAEVKKPGASVKVSCKASGYTFTDEYMNWVRQAPGQSLEWMGYINPNNGGADYNPSLKSRVTISVDQSISTAYMELSRLRSDDTAVYFCARLGYSNPYFDFWGQGTLVTVSS VL: DIVLTQSPDSLAVSLGERATINCKASQDVNTAVAWYQQKPDQSPKLLIYWASTRHTGVPARFTGSGSGTDYTLTISSLQAEDVAVYFCQQHHVSPWTFGGGTKVEIK | – | – | – | IC50 (read off the curve), OD (450nM) [4]: ~0.7 µg/mL
4 | H5L1-IgG (antibody, V domains shown) VH: QVQLKQSGAEVKKPGASVKVSCKASGYTFTDEYMNWVRQAPGKSLEWMGYINPNNGGADYNQKFQGRVTMTVDQSISTAYMELSRLRSDDTAVYFCARLGYSNPYFDFWGQGTLVTVSS VL: DIVLTQSPDSLAVSLGERATINCKASQDVNTAVAWYQQKPDQSPKLLIYWASTRHTGVPARFTGSGSGTDYTLTISSLQAEDVAVYFCQQHHVSPWTFGGGTKVEIK | ~2 | – | – | IC50 (read off the curve), OD (450nM) [4]: ~0.5 µg/mL
5 | H1L3-Fab (Fab, V domains shown) VH: QVQLVQSGAEVKKPGASVKVSCKASGYTFTDEYMNWVRQAPGQSLEWMGYINPNNGGADYNQKFQGRVTMTVDQSISTAYMELSRLRSDDTAVYFCARLGYSNPYFDFWGQGTLVTVSS VL: DIVLTQSPSFLSASVGDRVTITCQASQDVNTAVAWYLQKPGKSPKLLIYWASTRHTGVPARFTGSGSGTDYTLTISSLQPEDFAVYFCQQHHVSPWTFGGGTKVEIK | – | ~2 | – | –
6 | H5L1-Fab (Fab, V domains shown) VH: QVQLKQSGAEVKKPGASVKVSCKASGYTFTDEYMNWVRQAPGKSLEWMGYINPNNGGADYNQKFQGRVTMTVDQSISTAYMELSRLRSDDTAVYFCARLGYSNPYFDFWGQGTLVTVSS VL: DIVLTQSPDSLAVSLGERATINCKASQDVNTAVAWYQQKPDQSPKLLIYWASTRHTGVPARFTGSGSGTDYTLTISSLQAEDVAVYFCQQHHVSPWTFGGGTKVEIK | – | ~2 | – | –
7 | H5L2-Fab (Fab, V domains shown) VH: QVQLKQSGAEVKKPGASVKVSCKASGYTFTDEYMNWVRQAPGKSLEWMGYINPNNGGADYNQKFQGRVTMTVDQSISTAYMELSRLRSDDTAVYFCARLGYSNPYFDFWGQGTLVTVSS VL: DIVLTQSPATLSLSPGERATLSCRASQDVNTAVAWYQQKPDQSPKLLIYWASTRHTGVPARFTGSGSGTDYTLTISSLQPEDFAVYFCQQHHVSPWTFGGGTKVEIK | – | ~2 | ~0.4 | –
8 | H2L2-Fab (Fab, V domains shown) VH: EVQLVQSGAEVKKPGASVKVSCKASGYTFTDEYMNWVRQAPGKSLEWVGYINPNNGGADYNQKFQGRVTITVDQSASTAYMELSSLRSEDTAVYFCARLGYSNPYFDFWGQGTLVTVSS VL: DIVLTQSPATLSLSPGERATLSCRASQDVNTAVAWYQQKPDQSPKLLIYWASTRHTGVPARFTGSGSGTDYTLTISSLQPEDFAVYFCQQHHVSPWTFGGGTKVEIK | – | – | ~0.5 | –
9 | H1L1-Fab (Fab, V domains shown) VH: QVQLVQSGAEVKKPGASVKVSCKASGYTFTDEYMNWVRQAPGQSLEWMGYINPNNGGADYNQKFQGRVTMTVDQSISTAYMELSRLRSDDTAVYFCARLGYSNPYFDFWGQGTLVTVSS VL: DIVLTQSPDSLAVSLGERATINCKASQDVNTAVAWYQQKPDQSPKLLIYWASTRHTGVPARFTGSGSGTDYTLTISSLQAEDVAVYFCQQHHVSPWTFGGGTKVEIK | – | ~2 | ~0.3 | –
10 | H5L3-IgG (antibody, V domains shown) VH: QVQLKQSGAEVKKPGASVKVSCKASGYTFTDEYMNWVRQAPGKSLEWMGYINPNNGGADYNQKFQGRVTMTVDQSISTAYMELSRLRSDDTAVYFCARLGYSNPYFDFWGQGTLVTVSS VL: DIVLTQSPSFLSASVGDRVTITCQASQDVNTAVAWYLQKPGKSPKLLIYWASTRHTGVPARFTGSGSGTDYTLTISSLQPEDFAVYFCQQHHVSPWTFGGGTKVEIK | ~3 | – | – | –
11 | H3L2-Fab (Fab, V domains shown) VH: QVQLVQSGAEVKKPGASVKVSCKASGYTFTDEYMNWVRQAPGQSLEWMGYINPNNGGADYNPSLKSRVTISVDQSISTAYMELSRLRSDDTAVYFCARLGYSNPYFDFWGQGTLVTVSS VL: DIVLTQSPATLSLSPGERATLSCRASQDVNTAVAWYQQKPDQSPKLLIYWASTRHTGVPARFTGSGSGTDYTLTISSLQPEDFAVYFCQQHHVSPWTFGGGTKVEIK | – | – | ~0.5 | –
12 | H2L1-Fab (Fab, V domains shown) VH: EVQLVQSGAEVKKPGASVKVSCKASGYTFTDEYMNWVRQAPGKSLEWVGYINPNNGGADYNQKFQGRVTITVDQSASTAYMELSSLRSEDTAVYFCARLGYSNPYFDFWGQGTLVTVSS VL: DIVLTQSPDSLAVSLGERATINCKASQDVNTAVAWYQQKPDQSPKLLIYWASTRHTGVPARFTGSGSGTDYTLTISSLQAEDVAVYFCQQHHVSPWTFGGGTKVEIK | – | ~2 | ~0.5 | –
13 | H1L1-IgG (antibody, V domains shown) VH: QVQLVQSGAEVKKPGASVKVSCKASGYTFTDEYMNWVRQAPGQSLEWMGYINPNNGGADYNQKFQGRVTMTVDQSISTAYMELSRLRSDDTAVYFCARLGYSNPYFDFWGQGTLVTVSS VL: DIVLTQSPDSLAVSLGERATINCKASQDVNTAVAWYQQKPDQSPKLLIYWASTRHTGVPARFTGSGSGTDYTLTISSLQAEDVAVYFCQQHHVSPWTFGGGTKVEIK | ~3 | – | – | –
14 | H3L1-Fab (Fab, V domains shown) VH: QVQLVQSGAEVKKPGASVKVSCKASGYTFTDEYMNWVRQAPGQSLEWMGYINPNNGGADYNPSLKSRVTISVDQSISTAYMELSRLRSDDTAVYFCARLGYSNPYFDFWGQGTLVTVSS VL: DIVLTQSPDSLAVSLGERATINCKASQDVNTAVAWYQQKPDQSPKLLIYWASTRHTGVPARFTGSGSGTDYTLTISSLQAEDVAVYFCQQHHVSPWTFGGGTKVEIK | – | – | ~0.5 | –
15 | H3L2-IgG (antibody, V domains shown) VH: QVQLVQSGAEVKKPGASVKVSCKASGYTFTDEYMNWVRQAPGQSLEWMGYINPNNGGADYNPSLKSRVTISVDQSISTAYMELSRLRSDDTAVYFCARLGYSNPYFDFWGQGTLVTVSS VL: DIVLTQSPATLSLSPGERATLSCRASQDVNTAVAWYQQKPDQSPKLLIYWASTRHTGVPARFTGSGSGTDYTLTISSLQPEDFAVYFCQQHHVSPWTFGGGTKVEIK | – | – | – | IC50 (read off the curve), OD (450nM) [4]: ~0.8 µg/mL
16 | H2L2-IgG (antibody, V domains shown) VH: EVQLVQSGAEVKKPGASVKVSCKASGYTFTDEYMNWVRQAPGKSLEWVGYINPNNGGADYNQKFQGRVTITVDQSASTAYMELSSLRSEDTAVYFCARLGYSNPYFDFWGQGTLVTVSS VL: DIVLTQSPATLSLSPGERATLSCRASQDVNTAVAWYQQKPDQSPKLLIYWASTRHTGVPARFTGSGSGTDYTLTISSLQPEDFAVYFCQQHHVSPWTFGGGTKVEIK | – | – | – | IC50 (read off the curve), OD (450nM) [4]: ~0.7 µg/mL
17 | H1L2-IgG (antibody, V domains shown) VH: QVQLVQSGAEVKKPGASVKVSCKASGYTFTDEYMNWVRQAPGQSLEWMGYINPNNGGADYNQKFQGRVTMTVDQSISTAYMELSRLRSDDTAVYFCARLGYSNPYFDFWGQGTLVTVSS VL: DIVLTQSPATLSLSPGERATLSCRASQDVNTAVAWYQQKPDQSPKLLIYWASTRHTGVPARFTGSGSGTDYTLTISSLQPEDFAVYFCQQHHVSPWTFGGGTKVEIK | ~3 | – | – | –
18 | H5L2-IgG (antibody, V domains shown) VH: QVQLKQSGAEVKKPGASVKVSCKASGYTFTDEYMNWVRQAPGKSLEWMGYINPNNGGADYNQKFQGRVTMTVDQSISTAYMELSRLRSDDTAVYFCARLGYSNPYFDFWGQGTLVTVSS VL: DIVLTQSPATLSLSPGERATLSCRASQDVNTAVAWYQQKPDQSPKLLIYWASTRHTGVPARFTGSGSGTDYTLTISSLQPEDFAVYFCQQHHVSPWTFGGGTKVEIK | ~3 | – | – | IC50 (read off the curve), OD (450nM) [4]: ~0.7 µg/mL
19 | H3L4-IgG (antibody, V domains shown) VH: QVQLVQSGAEVKKPGASVKVSCKASGYTFTDEYMNWVRQAPGQSLEWMGYINPNNGGADYNPSLKSRVTISVDQSISTAYMELSRLRSDDTAVYFCARLGYSNPYFDFWGQGTLVTVSS VL: DIVLTQSPATLSLSPGERATLSCRASQDVNTAVAWYQQKPGKSPKLLIYWASTRHTGVPARFTGSGSGTDYTLTISSLQPEDFAVYFCQQHHVSPWTFGGGTKVEIK | – | – | – | IC50 (read off the curve), OD (450nM) [5]: ~0.8 µg/mL
